{"source": "the nanobody polyreactivity screen of Harvey et al. (2022)", "data": [{"experiment": "yeast display, Sf9 membrane polyspecificity reagent, FACS + sequencing; frameworks hold sequencing errors", "method_in_brief": "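Genes from sorted yeast were amplified by colony PCR, read by MiSeq 2 × 250 sequencing and filtered on CDR length. These cells carried a synthetic nanobody library in Saccharomyces cerevisiae BJ5465 and were sorted by FACS into low and high (top ~1%) gates on anti-HA and streptavidin fluorescence. Polyreactivity is labelled according to the gate of origin.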", "values": [{"sequence": "QVQLVESGGGLVQAGGSLRLSCAASGRIFGVYAMGWYRQAPGKERELVAAITRGASTYYADSVKGRFTISRDNAKNTVYLQMNSLKPEDCAVYYCAVSQYRGIYRMDYWGQGTQVTVSS", "polyreactivity (PSR sort gate)": "high polyreactivity"}, {"sequence": "QVQLVESGGGLVQAGGSLRLSCAASGRIFGVYAMGWYRQAPGKERELVAAITSSGGRTYYADSVKGRFTISRDNAKNTVYLQMNSLKPEDTAVYYCAALGWSRRGKFNYWGQGTQVTVSS", "polyreactivity (PSR sort gate)": "high polyreactivity"}, {"sequence": "QVQLVESGGGLVQAGGSLRLSCAASGRIFGVYAMGWYRQAPGKERELVAAIYSGSTTYYADSVKGRFTISRDNAKNTVYVQMNSLKPEDTAVYYCAAVSRDDNYQDYYSWGQGTQVTGSS", "polyreactivity (PSR sort gate)": "low polyreactivity"}, {"sequence": "QVQLVESGGGLVQAGGSLRLSCAASGRIFGVYAMGWYRQAPGKERELVADISWSGSGTYADSVKGRFTISRDNAKNTVYLQMMSLKPEDTAVYYCNVDPAQIHAGYVGYDYWGQGTQVTVSS", "polyreactivity (PSR sort gate)": "low polyreactivity"}, {"sequence": "QVQLVESGGGLVQAGGSLRLSCAASGRIFGVYAMGWYRQAPGKERELVASITGSGGRTYYADSVKGRFTISRDNAKNTVYLQMNSLKPEDTAVYYCAAKWGTRLAQQKSYGYWGQGTQVTVSS", "polyreactivity (PSR sort gate)": "high polyreactivity"}, {"sequence": "QVQLVESGGGLVQAGGSLRLSCAASGRIFGVYAMGWYRQAPGKERELVATITSGGSTSYADSVKGRFTISRDNAKNTVYLQMNSPKPEDTAVYYCNAPYSFFWQQMNYWGQGTQVTVSS", "polyreactivity (PSR sort gate)": "low polyreactivity"}, {"sequence": "QVQLVESGGGLVQAGGSLRLSCAASGRIFGVYVMGWYRQAPGKERELVAAISWSGSHTYYADSVKGRFTISRDNAKNTVYLQMNSLKPEDTAVYYCAAGASLWRLGLKMGYWGQGTQVTVSS", "polyreactivity (PSR sort gate)": "low polyreactivity"}, {"sequence": "QVQLVESGGGLVQAGGSLRLSCAASGRIFGVYVMGWYRQAPGKERELVAAISWSGSHTYYADSVKGRFTISRDNAKNTVYLQMNSLKPEDTAVYYCNADSSPEYTGPGLDWYDYWGQGTQVTVSS", "polyreactivity (PSR sort gate)": "low polyreactivity"}, {"sequence": "QVQLVESGGGLVQAGGSLRLSCAASGRIFGWYAMGWYRQAPGKERELVAAIDGGDDSTYYADSVKGRFTISRDNAKNTVYLQMNSLKPEDTAVYYCAVVGYNWGQGTQVTVSS", "polyreactivity (PSR sort gate)": "low polyreactivity"}, {"sequence": "QVQLVESGGGLVQAGGSLRLSCAASGRIFGWYAMGWYRQSPGKERELVAAITGSGSRTYYADSVKGRFTISRDNAKNTVYLQMNSLKPEDTAVYYCAVPTRRRRIYDYWGQGTQVTVSS", "polyreactivity (PSR sort gate)": "high polyreactivity"}, {"sequence": "QVQLVESGGGLVQAGGSLRLSCAASGRIFGYHARGWSRQAPGKERELVAAIDYTGGSTYYADSVKGRFTISRDNAKNTVYLQMNSLKPEETAVNYCAKDRTTPWEEDAYWGQGTQVTVSS", "polyreactivity (PSR sort gate)": "low polyreactivity"}, {"sequence": "QVQLVESGGGLVQAGGSLRLSCAASGRIFGYNALGWYRQAPGKERELVAAINSDGSKNYADSVKGRFTISRDNAKNTVYFQMNSLNPEDTALYYCNKELYPVGDYEYWGEGTQVTVSS", "polyreactivity (PSR sort gate)": "low polyreactivity"}, {"sequence": "QVQLVESGGGLVQAGGSLRLSCAASGRIFGYNAMGWSRQAPGKERELFAAITTSGGSTYYADSVKGRFTISRDNAKNTVYLQMNSLKPEDTAVYYCARDSLQVFYPYASDDYWGQGTQVTVSS", "polyreactivity (PSR sort gate)": "low polyreactivity"}, {"sequence": "QVQLVESGGGLVQAGGSLRLSCAASGRIFGYNAMGWSRQAPGKERELGAAISWSGGSTFYADSVKGRFTISRDNAKNTVYLQMNSLKPEDTAVYYCAADSQDGYYYWGQGTQVTVSS", "polyreactivity (PSR sort gate)": "low polyreactivity"}, {"sequence": "QVQLVESGGGLVQAGGSLRLSCAASGRIFGYNAMGWYRQAPGKERELVAVITYSGGSTYYADSVKGRFTISRDNAKNTVYLQMNSLKPEDTAVYYCNARPIDRYSGSGKQWPDYYYWGQGTQVTVSS", "polyreactivity (PSR sort gate)": "low polyreactivity"}, {"sequence": "QVQLVESGGGLVQAGGSLRLSCAASGRIFGYYAMGCYRQAPGKERELVAAIRWGGGRTYADSVKGRFTISRDNAKNTVYLQMNSLKPEDTAVDYCAARFTRTRPLWRARYGYWGQGTQVTVSS", "polyreactivity (PSR sort gate)": "high polyreactivity"}, {"sequence": "QVQLVESGGGLVQAGGSLRLSCAASGRIFGYYAMGWYIQAHGKERELVAAINSGSRTYYADSVKGRFTISRDNAKNTVYLQMNSLKPEDTAVYYCAARVRYPPYRSSDGQRGGYWGQGTQVTVSS", "polyreactivity (PSR sort gate)": "high polyreactivity"}, {"sequence": "QVQLVESGGGLVQAGGSLRLSCAASGRIFGYYAMGWYRLAPGKERELVAAITSGGRTTYADSVKGRFTISRDNAKNTVYVQMNSLKPEDTAVYYCAKEYPRYSSPYDYWGQGTQVTVSS", "polyreactivity (PSR sort gate)": "low polyreactivity"}, {"sequence": "QVQLVESGGGLVQAGGSLRLSCAASGRIFGYYAMGWYRQAPGKEMELVARITWSGGDTYYADSVKGRFTISRDNAKNTVYLQMNSLKPEDTAVYYCAADYLDSTYGYVYGWDDYWGQGTQVTVSS", "polyreactivity (PSR sort gate)": "low polyreactivity"}, {"sequence": "QVQLVESGGGLVQAGGSLRLSCAASGRIFGYYAMGWYRQAPGKERELVAAINSGSRTYYADSVKGRFTISRDNAKNTVYLQMNSLKPEDTAVYYCAARVRYPPYRSSDGQRGGYWGQGTQVTVSS", "polyreactivity (PSR sort gate)": "high polyreactivity"}, {"sequence": "QVQLVESGGGLVQAGGSLRLSCAASGRIFGYYAMGWYRQAPGKERELVAAISSSDGSTYYADSVKGRFTISRDNAKNTVYLQMNSLKPEDTAVYYCAASYYNWDVYQLSYRYDYWGQGTQVTVSS", "polyreactivity (PSR sort gate)": "low polyreactivity"}, {"sequence": "QVQLVESGGGLVQAGGSLRLSCAASGRIFGYYTMGWYRQAPGKEREFVASISTTGGSTYYADSVKGRFTISRDNAKNTVYLQMNSLKPEDTAVYYCNVYYWYGSRGSYALGKEYDYWGQGTQVTVSS", "polyreactivity (PSR sort gate)": "high polyreactivity"}, {"sequence": "QVQLVESGGGLVQAGGSLRLSCAASGRIFGYYTMGWYRQAPGKERELVAGITRRGGRTYYADSVKGRFTISRDNAKNTVYLQMNSLKPEDTAVYYCAVRSGVNFYYWGQGTQVTVSS", "polyreactivity (PSR sort gate)": "high polyreactivity"}, {"sequence": "QVQLVESGGGLVQAGGSLRLSCAASGRIFGYYTMGWYRQAPWKESELVARIRRNGVSTYYADSVKGRFTISRDNEKNTVYLQMNSLKPEDTAVYYCAAGYSINFKYDYWGQGTQVTVSS", "polyreactivity (PSR sort gate)": "high polyreactivity"}, {"sequence": "QVQLVESGGGLVQAGGSLRLSCAASGRIFHANAMGWYRQAPGKERELVAGISRNGGRTYYADSVKGRFTISRDNAKNTVYLQMNSLKPEDSAVYYCNALHWHSNELDYYWGQGTQVTVSS", "polyreactivity (PSR sort gate)": "high polyreactivity"}, {"sequence": "QVQLVESGGGLVQAGGSLRLSCAASGRIFHANAMGWYRQAPGKERELVAGISRNGGRTYYADSVKGRFTISRDNAKNTVYLQMNSLKPEDTAVYYCAARVWGSSQYYYWGQGTQVTVSS", "polyreactivity (PSR sort gate)": "high polyreactivity"}, {"sequence": "QVQLVESGGGLVQAGGSLRLSCAASGRIFHFYAMGWYRQAPGKERELVAAITSRTGNTYYADSVKGRFTISRDNAKNTVYLQMNSLKPEDTAVYYCAAKLVNALLHYRNWNHINYWGQGTQVTVSS", "polyreactivity (PSR sort gate)": "low polyreactivity"}, {"sequence": "QVQLVESGGGLVQAGGSLRLSCAASGRIFHFYAMGWYRQAPGKERELVAAITSRTGNTYYADSVKGRYTISRDNAKNTVYLQMNSLKPEDTAVYYCAAKLVNALLHYRNWNHNNYWGQGTQVNVSS", "polyreactivity (PSR sort gate)": "low polyreactivity"}, {"sequence": "QVQLVESGGGLVQAGGSLRLSCAASGRIFHFYAMGWYRQAPGKERELVASITWRGGRTYYADSVKGRFTISRDNAKNTVYLQMNSLKPEDTAVYYCAADFRSGFSSSTTPVQSDWGQGTQVTVSS", "polyreactivity (PSR sort gate)": "low polyreactivity"}, {"sequence": "QVQLVESGGGLVQAGGSLRLSCAASGRIFHGYVMGWYRQAPGKERELVAAINQSGTSTYYADSVKGRFTISRDNAKNTVYLQMNSLKPEDTAVYYCAKDWAYRRHWVGFYYWGQGTQVTVSS", "polyreactivity (PSR sort gate)": "low polyreactivity"}, {"sequence": "QVQLVESGGGLVQAGGSLRLSCAASGRIFHNYAMGWYRQAPGKERELVAAISSSGGRTTYADSVKGRFTISRDYAKNTVYLQMNSLKPEDTAVDYCAKRYPHIGDYWGEGTQVTVSS", "polyreactivity (PSR sort gate)": "high polyreactivity"}, {"sequence": "QVQLVESGGGLVQAGGSLRLSCAASGRIFHPNAMGWYIQAPGKERELDAAISRSGSTYYADSVKGRFTISRDNAKNTVYLQMNSLKPEDTAVYYCATQTWSCFSGTPRIYDYWGQGTQVTVSS", "polyreactivity (PSR sort gate)": "high polyreactivity"}, {"sequence": "QVQLVESGGGLVQAGGSLRLSCAASGRIFHQYAIGWSRPAPGKERELVAAISSGGGSTYYADSVKGRFTISRDNAKNTVYLQMNSLKPEDNAVYYCAAVYDYDRGVNYWGQGTQVTVSS", "polyreactivity (PSR sort gate)": "high polyreactivity"}, {"sequence": "QVQLVESGGGLVQAGGSLRLSCAASGRIFHVYVMGWYRPAPGKERELVAAITWRGGRTYYADSVKGRFTISRDNAKNTVYLQMNSLKPEDTAVYYCKAVAYWYDYQYDYWGQGTQVTVSS", "polyreactivity (PSR sort gate)": "high polyreactivity"}, {"sequence": "QVQLVESGGGLVQAGGSLRLSCAASGRIFHWYAMGWYRQAPGKERELVATANTSYADSVKGRFTISRDNAKNTVYLQMNSLKPEDTAVYYCATVGPRGRSLGDYWGQGTQVTVSS", "polyreactivity (PSR sort gate)": "low polyreactivity"}, {"sequence": "QVQLVESGGGLVQAGGSLRLSCAASGRIFHYNAMGWYRQAPGKERELVARITWTGGSTYYADSVKGRFTISRDNAKNTVYLQMNSLKPEDNAVYYCAAKWSYTKGRYYYWGQGTQVTVSS", "polyreactivity (PSR sort gate)": "high polyreactivity"}, {"sequence": "QVQLVESGGGLVQAGGSLRLSCAASGRIFIGNAMGWYRQAPGKERELVAAISKRGGSTYYADSVKGRFTISRDNAKNTVYLQMNSLKPVDTAVYYCAVDGYVGVADYEYDNWGQGTQVTVSS", "polyreactivity (PSR sort gate)": "low polyreactivity"}, {"sequence": "QVQLVESGGGLVQAGGSLRLSCAASGRIFIGYAMGWYRQAPGKERELVAAITSGGRTYYADSVKGRFTISRDNAKNTVYLQMNSLKPEDTAVYYCYRAAFRYRYDYWGQGTQVTVSS", "polyreactivity (PSR sort gate)": "high polyreactivity"}, {"sequence": "QVQLVESGGGLVQAGGSLRLSCAASGRIFIIYAMGWYRQAPGKERELVAAINRGATTNYADSVKGRFTISRDNAKNTVYLQMNSLKPEDTAVYYCAARGVAKLRRVGYWGQGTQVTVSS", "polyreactivity (PSR sort gate)": "high polyreactivity"}, {"sequence": "QVQLVESGGGLVQAGGSLRLSCAASGRIFIKYAMGWYRQAPGKERELVAAISQSGGSTYYADSVKGRFTISRDNAKNTVYLQMNSLKPEDTAVYYCAVRLYYSIRYYYWGQGTQVTVSS", "polyreactivity (PSR sort gate)": "high polyreactivity"}, {"sequence": "QVQLVESGGGLVQAGGSLRLSCAASGRIFIPNTMGWYIQAPGKERELVAAITWSGSSTYYADSVKGRFTISRDNAKNTVYLQMNSLKPEDTAVYYCAAYPSCYVVVSKGDYWGQGTQVTVSS", "polyreactivity (PSR sort gate)": "high polyreactivity"}, {"sequence": "QVQLVESGGGLVQAGGSLRLSCAASGRIFIPYVMGWYRQAPGKERELVAVITESGGSTYYADSVKGRFTISRDNAKNTVYLQMNSLKPEDTAVYYCATRYGRGARTYHYYYWGQGTQVTVSS", "polyreactivity (PSR sort gate)": "high polyreactivity"}, {"sequence": "QVQLVESGGGLVQAGGSLRLSCAASGRIFIQNTMGWYRQAPGKERELVAAITRSGGRTYYADSVKGRFTISRDNAKNTVYLQMNSLKPEDTAVYYCAAVARTVPSYSYNYWGQGTQVTVSS", "polyreactivity (PSR sort gate)": "high polyreactivity"}]}]}
